{"source": "paper PMC3001090", "target": "T1, Rv1495 (MazF homolog) (Mycobacterium tuberculosis, UniProt P9WII5 1-105)", "T1 sequence": "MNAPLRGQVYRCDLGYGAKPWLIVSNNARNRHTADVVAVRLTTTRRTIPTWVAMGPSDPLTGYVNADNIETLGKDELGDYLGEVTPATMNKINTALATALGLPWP", "test": "EMSA", "data": [{"binder": "CAGTGAGCGAGCTTCCGCTTGACATCCCAATA (ssDNA)", "note": "[32-mer TopA substrate oligonucleotide]", "values": [{"measurement": "binding result", "result": "no binding"}]}]}
